In patent US20240350583A1, “COMPOSITION FOR PREVENTING OR TREATING FIBROTIC DISEASES, COMPRISING HAPLN1” (Chung Ang University Industry Academic Cooperation …, priority 2021, published 2024):

Key:
[1] = system: human kidney renal tubule cell (Human Kidney 2, HK-2); assay: Cell morphological changes of TGFβ1-treated HK-2 cells; format: cell-based; conditions: TGFβ1 10 ng/ml 24 h
Description: (1) Human kidney renal tubule cells (HK-2) were seeded (3.0×10^5 cells/well) in a 6-well plate according to the experimental scheme of FIG. 8A and incubated in RPMI 1640 Medium (11875-093, Gibco) including 10% FBS for 24 hours in an incubator at 37° C. 5% CO2.
(2) Afterwards, the plates were washed several times with PBS, and each well of the plate was treated with TGFβ1 (10 ng/ml) and incubated for 24 hours.
(3) Subsequently, the plates were then treated with the composition of the present disclosure (rhHAPLN1 protein content of 0, 5, 10, 20, 50 and 100 ng/ml) and pirfenidone 0.2 mg/mL (200 μg/mL), respectively, and incubated for 24 hours.
(4) The wells containing each sample were then washed twice with 1×PBS, treated with 4% paraformaldehyde and fixed for 1 hour.
(5) After washing twice with 1×PBS, the shape or morphology of the cells was observed under a microscope.

[2] = system: renal proximal tubule epithelial cell (RPTEC); assay: Age-induced fibrosis of RPTEC (passage 11), αSMA immunofluorescence; format: cell-based; conditions: aged cells (11th passage culture), 72 hours
Description: (1) Renal proximal tubule epithelial cell ([…]) in 12-well plates and cultured in complete renal epithelial cell medium (ATCC PCS-400-030+ATCC PCS-400-040) in an incubator at 37° C. 5% CO2 for 24 hours.
(2) Subsequently, the plates were then treated with the composition of the present disclosure (rhHAPLN1 protein content of 0, 10, 20, 50 and 100 ng/ml) and pirfenidone 0.2 mg/mL (200 μg/mL), respectively, and cultured for 72 hours.
(3) Afterwards, each well was washed twice with PBS, then treated with 4% paraformaldehyde and fixed for 1 hour.
(4) After washing four times with 1×PBS, the wells were treated with 1×PBST (1×PBS+0.1% Triton X-100) containing 1% BSA and blocked for 2 hours.
(5) Primary antibody against αSMA (Abcam ab7817) was diluted 1:200 in 1×PBSTdp and treated and incubated overnight at 4° C.
(6) The next day, the blot was washed four times with 1×PBST.
(7) After treatment with secondary antibody (anti-mouse IgG Alexa Fluor™ 488 1:500 (Invitrogen, A28175)) and DAPI 1:2000 (Invitrogen, D1306), the cells were incubated at room temperature for 1 hour.
(8) Afterwards, 50 ul of Vectashield (Vectorlabs, H-1000) was added, covered with a coverslip, and photographed with a fluorescence microscope.

[3] = system: human colon fibroblast cell line (CCD-18Co); assay: TGFβ1-induced fibrosis of human colon fibroblast cell line, αSMA western blot; format: cell-based
Description: (1) A human colon fibroblast cell line (CCD-18Co (human colon fibroblast cell line; ATCC, CRL-1459)) was seeded (1.5×10^5 cells/well) in a 6-well plate according to the experimental scheme in FIG. 3A and incubated in Eagle's minimum essential medium (EMEM) medium including 10% fetal bovine serum (FBS) for 24 hours in an incubator at 37° C. and 5% CO2.
(2) After replacing with serum-free EMEM medium, the medium was incubated for 24 hours.
(3) The plates were then treated with TGF-β (10 ng/ml) to induce fibrosis and incubated for 24 hours.
(4) Afterwards, each well of the plate was then treated with the composition of the present disclosure at rhHAPLN1 protein content of 0, 3, 10, 30, and 100 ng/ml and pirfenidone 100 μg/mL and 200 μg/mL, respectively, and incubated for 24 hours.
(5) Each sample was then treated with cell lysis buffer and harvested.
(6) Western blot was performed on the samples. Here, anti-αSMA Ab (Abcam, ab7817), anti-GAPDH Ab (Santa Cruz, sc-32233) were used as primary antibodies and HRP-conjugated anti-mouse IgG Ab (CST, #7076) as secondary antibodies to confirm the protein expression levels of αSMA and GAPDH.

[4] = may vary from cell to cell; related literature; cited from earlier work
[5] = system: normal human dermal fibroblast (NHDF); assay: TGFβ1-induced fibrosis of human dermal fibroblasts, αSMA western blot; format: cell-based
Description: (1) Human dermal fibroblasts (normal human dermal fibroblast, NHDF) were seeded (1.0×10^5 cells/well) in a 6-well plate and incubated in FBM-2 (fibroblast growth medium-2, CC-3131, Lonza) medium for 24 hours in an incubator at 37° C. 5% CO2.
(2) After replacing with serum-free medium, the medium was incubated for 24 hours.
(3) In this regard, under conditions in which fibrosis was induced by treatment with TGFβ1 (10 ng/ml), each well of the plate was treated with the composition of the present disclosure based on Preparation Example 2 but with rhHAPLN1 protein content of 0, 3, 10, 30, and 100 ng/ml and 100 μg/mL and 200 μg/mL of pirfenidone (Selleckchem), a commercially available anti-fibrotic agent, respectively, and incubated for 24 hours.
(4) Afterwards, each sample was washed twice with phosphate buffered saline (PBS, pH 7.2), and then the expression level of αSMA, a marker for myofibroblasts, was confirmed by western blot.

## Cc1ccc(=O)n(-c2ccccc2)c1 [pirfenidone, reference compound]
[1]; then pirfenidone 0.2 mg/mL 24 h
  cell morphology after TGFβ1-induced sharp fibrotic form (FIG. 8B): round
[2]; pirfenidone 0.2 mg/ml
  αSMA stained fluorescent areas (FIG. 10B): fewer stained fluorescent areas appeared
[3]; Homo sapiens, CCD-18Co, pirfenidone 100 μg/mL
  inhibition at 100 µg/mL: 10.6%
[3]; pirfenidone 100 μg/mL
  relative level of αSMA (value used in the inhibition formula; TGFβ1 alone 3.82, untreated 1): 3.52
[3]; pirfenidone 200 μg/mL
  expression level of αSMA at 200 μg/mL versus 100 μg/mL: higher expression level of αSMA than 100 μg/mL
[4]
  effective doses in cells: ≥ 100 µg/mL
[5]; pirfenidone 200 μg/mL, TGFβ1 10 ng/ml
  expression level of αSMA at 200 μg/mL versus 100 μg/mL: higher expression level of αSMA than 100 μg/mL
[5]; αSMA, TGFβ1 10 ng/ml
  optimal anti-fibrotic concentration (assumed): 100 µg/mL

B1: rhHAPLN1: recombinant human HAPLN1 protein of SEQ ID NO: 1 produced in CHO-K1 cells, stabilized in acetic acid buffer, sucrose, PS80, pH 5.0 (protein, listed as Homo sapiens)
chain: MKSLLLLVLISICWADHLSDNYTLDHDRAIHIQAENGPHLLVEAEQAKVFSHRGGNVTLPCKFYRDPTAFGSGIHKIRIKWTKLTSDYLKEVDVFVSMGYHKKTYGGYQGRVFLKGGSDSDASLVITDLTLEDYGRYKCEVIEGLEDDTVVVALDLQGVVFPYFPRLGRYNLNFHEAQQACLDQDAVIASFDQLYDAWRGGLDWCNAGWLSDGSVQYPITKPREPCGGQNTVPGVRNYGFWDKDKSRYDVFCFTSNFNGRFYYLIHPTKLTYDEAVQACLNDGAQIAKVGQIFAAWKILGYDRCDAGWLADGSVRYPISRPRRRCSPTEAAVRFVGFPDKKHKLYGVYCFRAYN
[1]; then rhHAPLN1 5-100 ng/ml 24 h
  cell morphology after TGFβ1-induced sharp fibrotic form (FIG. 8B): the shape of the cells changed to round
[2]; rhHAPLN1 50 ng/ml and 100 ng/ml
  αSMA stained fluorescent areas compared to composition without rhHAPLN1 (FIG. 10B): fewer stained fluorescent areas appeared
[3]; TGFβ1 10 ng/ml 24 h, then rhHAPLN1 3, 10, 30, 100 ng/ml 24 h
  expression level of αSMA compared to composition that does not include rhHAPLN1 protein (FIG. 3C): significantly lower
[3]; all rhHAPLN1 contents, pirfenidone 100 and 200 μg/mL
  anti-fibrotic action from αSMA western blot band, compared to pirfenidone (FIG. 3B): much better anti-fibrotic action compared to pirfenidone
[3]; rhHAPLN1 10 ng/ml
  anti-fibrotic efficacy of rhHAPLN1 relative to pirfenidone at 100 μg/mL: approximately 7 folds
  anti-fibrotic efficacy relative to pirfenidone at 200 μg/mL: much higher than twice
  inhibition of TGFβ1-induced αSMA: 71.6%
  relative level of αSMA (value used in the inhibition formula; TGFβ1 alone 3.82, untreated 1): 1.8
[3]; αSMA
  rhHAPLN1 protein content showing the most excellent anti-fibrotic efficacy: 10 ng/mL
[5]; TGFβ1 10 ng/ml, all rhHAPLN1 contents 3, 10, 30, 100 ng/ml, 24 hours
  expression level of αSMA compared to composition that does not include rhHAPLN1 protein (FIG. 1B): significantly lower
[5]; TGFβ1 10 ng/ml, pirfenidone 100 and 200 μg/mL
  anti-fibrotic action from αSMA western blot band, compared to pirfenidone (FIG. 1A): much better anti-fibrotic action than pirfenidone
[5]; TGFβ1 10 ng/ml, αSMA
  rhHAPLN1 protein content showing the most excellent anti-fibrotic efficacy: 100 ng/mL
[5]; rhHAPLN1 100 ng/ml, αSMA
  anti-fibrotic efficacy higher than pirfenidone at 100 μg/mL: 25%
